The values that follow come from patent US20230416760A1 (CURATORS OF THE UNIVERSITY OF MISSOURI, published 2023).

For series [1], the system named is all three BADCs (recombinant BADC1, BADC2, BADC3).
The target in series [2] is BCCP2 (AT5G15530), biotin carboxyl carrier protein isoform 2, Arabidopsis thaliana (Arabidopsis thaliana) (UniProt Q9LLC1). Briefly: co-IP from A. thaliana chloroplast lysate with anti-BCCP2 antibody, LC-MS/MS, n=7.
Series [3] deals with the molecule itself. The experiment in a line: intact mass analysis and non-reducing SDS-PAGE of purified recombinant protein.
Series [4] concerns the target α-carboxyltransferase (α-CT) subunit of hetACCase, AT2G38040, Arabidopsis thaliana (Arabidopsis thaliana) (UniProt Q9LD43). Briefly: co-IP from A. thaliana chloroplast lysate with anti-α-CT antibody, LC-MS/MS, n=7.
Series [5] has as its target T1, heteromeric acetyl-coenzyme A carboxylase (hetACCase) of Arabidopsis thaliana (Arabidopsis thaliana).
T1 chain 1: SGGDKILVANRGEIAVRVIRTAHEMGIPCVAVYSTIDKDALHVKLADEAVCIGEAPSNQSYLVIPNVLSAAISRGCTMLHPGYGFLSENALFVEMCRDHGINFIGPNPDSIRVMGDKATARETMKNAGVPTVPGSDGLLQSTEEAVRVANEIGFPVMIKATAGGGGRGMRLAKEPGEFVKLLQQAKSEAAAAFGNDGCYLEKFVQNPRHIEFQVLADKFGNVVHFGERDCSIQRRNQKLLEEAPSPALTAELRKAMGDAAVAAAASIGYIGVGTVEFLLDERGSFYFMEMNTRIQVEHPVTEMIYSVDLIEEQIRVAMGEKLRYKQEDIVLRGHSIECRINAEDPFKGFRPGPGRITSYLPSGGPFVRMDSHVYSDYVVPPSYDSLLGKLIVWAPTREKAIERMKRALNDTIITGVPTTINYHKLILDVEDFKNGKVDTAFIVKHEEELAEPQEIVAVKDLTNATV
T1 chain 2: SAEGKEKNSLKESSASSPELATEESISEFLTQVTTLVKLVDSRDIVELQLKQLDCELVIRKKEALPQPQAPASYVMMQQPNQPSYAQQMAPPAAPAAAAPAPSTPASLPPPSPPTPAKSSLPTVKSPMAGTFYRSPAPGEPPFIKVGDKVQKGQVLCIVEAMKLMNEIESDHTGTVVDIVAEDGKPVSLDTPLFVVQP
T1 chain 3: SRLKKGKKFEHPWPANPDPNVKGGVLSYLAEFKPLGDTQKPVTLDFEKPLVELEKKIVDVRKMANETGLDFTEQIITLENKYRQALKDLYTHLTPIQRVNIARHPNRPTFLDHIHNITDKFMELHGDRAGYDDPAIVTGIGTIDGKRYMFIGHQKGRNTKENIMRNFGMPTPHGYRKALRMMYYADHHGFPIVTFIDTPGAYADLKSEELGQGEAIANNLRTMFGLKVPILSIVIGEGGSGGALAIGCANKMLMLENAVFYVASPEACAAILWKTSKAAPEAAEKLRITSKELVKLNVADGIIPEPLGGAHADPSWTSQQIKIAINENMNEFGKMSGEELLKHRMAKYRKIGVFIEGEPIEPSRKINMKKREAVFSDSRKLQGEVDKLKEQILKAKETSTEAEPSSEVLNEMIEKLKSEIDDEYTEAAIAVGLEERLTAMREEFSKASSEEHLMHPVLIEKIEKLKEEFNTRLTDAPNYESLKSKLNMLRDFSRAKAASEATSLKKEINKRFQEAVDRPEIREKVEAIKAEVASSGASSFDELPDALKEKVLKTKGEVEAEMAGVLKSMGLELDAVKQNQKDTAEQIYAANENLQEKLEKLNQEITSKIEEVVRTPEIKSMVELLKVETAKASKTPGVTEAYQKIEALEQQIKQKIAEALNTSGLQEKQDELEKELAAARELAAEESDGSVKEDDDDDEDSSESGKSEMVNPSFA
T1 chain 4: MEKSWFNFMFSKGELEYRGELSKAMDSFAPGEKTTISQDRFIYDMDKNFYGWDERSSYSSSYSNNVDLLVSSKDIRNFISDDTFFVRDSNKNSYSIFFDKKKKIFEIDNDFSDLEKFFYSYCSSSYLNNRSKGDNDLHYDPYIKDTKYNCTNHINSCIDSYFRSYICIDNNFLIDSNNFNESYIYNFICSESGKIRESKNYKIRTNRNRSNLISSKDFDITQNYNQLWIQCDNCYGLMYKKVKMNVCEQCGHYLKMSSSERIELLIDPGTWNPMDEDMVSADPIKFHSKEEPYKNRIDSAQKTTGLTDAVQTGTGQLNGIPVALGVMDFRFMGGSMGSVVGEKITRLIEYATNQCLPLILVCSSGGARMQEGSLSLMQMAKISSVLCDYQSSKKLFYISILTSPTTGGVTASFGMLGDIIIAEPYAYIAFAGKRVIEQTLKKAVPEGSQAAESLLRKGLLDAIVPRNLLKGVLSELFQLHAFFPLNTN
Briefly: inhibition of ACCase activity in 20-day-old A. thaliana leaf extracts by increasing concentrations of recombinant BADC1.
Procedure: ACCase activity was monitored in vitro in 20-day-old A. thaliana leaf extracts with increasing concentrations of recombinant BADC1. Specific activity was determined for each experiment and 0 μM controls were normalized to 1. Specific activity values for controls ranged from 0.84-2.00 nmol/min/mg. Each data point represented the average of four biological replicates, with each biological replicate comprised of four light-adapted leaves.

With “heteromeric acetyl-coenzyme A carboxylase (hetACCase) of Arabidopsis thaliana”, the “hetACCase activity in ten-day-old A. thaliana silique extracts (H14CO3 incorporation), 10 µM recombinant protein” value in series [1] is reported as “all three BADCs inhibited hetACCase activity by 25 to 37%”.

B1: BADC2 (AT1G52670), Single hybrid motif protein, Arabidopsis thaliana (other)
chain: TTLRSVKAIQLSTVPPAETEAIADVKDSDETKSTVVNTHLMPKSSEVEALISEITDSSSIAEFELKLGGFRLYVARKLTDESSPPPQQIQPVVAASATPEGVHTNGSATSSSLAITKTSSSSADRPQTLANKAADQGLVILQSPTVGYFRRSKTIKGKRTPTICKEKDIVKEGQVLCYIEQLGGQIPVESDVSGEIVKILREDGEPVGYNDALITVLPSFPGIKKLQ
notes: His-tagged or untagged from E. coli, bait/prey fusion in yeast two-hybrid, native protein in co-IPs; also called AtBADC2
As to B1, the replicates (of seven) of the co-IP in which the protein was present amounted to 6 replicates in series [2] and 2 replicates in series [4]. In addition, the binding result in series [3] is recorded as “no binding”.

B2: BADC1 (AT3G56130), biotin/lipoyl attachment domain-containing protein, Arabidopsis thaliana (other)
chain: AKAAKSSTTTISDGSSDASVSDGKKTVRRITFPKEVEALVHEMCDETEVAVLQLKVGDFEMNLKRKIGAATNPIPVADISPTVAPPIPSEPMNKSASSAPSPSQAKPSSEKVSPFKNTSYGKPAKLAALEASGSTNYVLVTSPAVGKFQRSRTVKGKKQSPSCKEGDAIKEGQVIGYLHQLGTELPVTSDVAGEVLKLLSDDGDSVGYGDPLVAVLPSFHDINIQ
notes: Recombinant and yeast two-hybrid constructs were made without the transit peptide predicted by TargetP; also called AtBADC1
Usually Ki stands for a dissociation constant, usually derived from enzyme kinetics or from competition with a known ligand. Consider B2, for which the results for the replicates (of seven) of the co-IP in which the protein was present in series [2] and in series [4] were 7 replicates and 1 replicates, respectively. For the same molecule, the Ki in series [5] is roughly 4.3 µM.
